Test results published in the supplement of paper PMC10567573.

B1: TRIM35 (parent)
chain: DKELLCCSCQADPRHQGHRVQPVK
B2: RSPH3 (parent)
chain: MTVKPAKAASLARNLAKRRRTYLG

Variants of: B1
Assay: protein stability index of a GFP-peptide fusion (GPS, HEK-293T) (PSI 1-6); higher = more stable
Details: c terminus: a fixed tail appended
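Further: lentivirally expressed fusions sorted by FACS into six bins by GFP to DsRed ratio, PSI derived from sequencing read proportions per bin multiplied by bin number.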

Variant	protein stability index
V20L	3.91
V20Y	3.04
V20S	3.71
V20R	3.5
V20N	4.13
V20W	2.76
V20Q	4.11
V20T	3.5
V20P	4.54
P22H	3.31
P22V	2.68
P22Q	4.04
P22C	4.52
P22N	3.05
P22L	2.84
P22K	4.08
P22Y	2.92
P22T	4.03
P22F	3.44
P22M	2.73
P22E	4.53

Variant	protein stability index
P22D	4.11
P22S	3.08
P22I	3.04
P22R	3.4
P22A	3.97
Q21Y	2.91
Q21R	3.71
Q21P	3.56
Q21A	3.79
Q21L	3.15
Q21H	3.61
Q21C	3.92
Q21T	1.96
Q21D	4.05
Q21W	2.52
Q21K	3.74
Q21N	4
Q21E	4.26
Q21S	3.96
Q21G	3.28
Q21F	2.79

Variant	protein stability index
Q21I	2.65
Q21M	3.68
V23I	4.25
V23Q	4.13
V23G	3.87
V23P	4.06
V23S	3.36
V23C	4
V23D	4.19
V23W	2.19
V23A	3.88
V23E	3.92
V23K	4.55
V23N	3.8
V23F	3.07
V23Y	2.96
V23M	3.05
V23H	3.23
V23L	4.02
V23T	3.4
K24G	3.63

Variant	protein stability index
K24D	4.05
K24I	2.73
K24T	3.31
K24E	3.81
K24M	3.29
K24V	2.92
K24P	3.46
K24H	3.38
K24S	3.52
K24N	3.04
K24C	3.18
K24R	2.82
K24Y	2.79
K24W	2.53
K24Q	3.77
K24L	2.65
K24A	2.87
K24F	3.79

Variants of: B2
Assay: as above
Details: c terminus: a fixed tail appended

Variant	protein stability index
M1S	3.02
R13C	3.12
R13N	3.63
R13M	2.39
R13T	2.66
A16N	2.72
A16S	3.36
A16E	2.15
A16F	2.48
A16P	3.42
A16V	3.28
S10M	2.02
S10I	2.55
S10R	3.92
K4E	2.1
K4A	2
A9M	2.2
A9K	2.64
A9I	1.79
A9H	3.37
A9C	2.73
A9W	1.9

Variant	protein stability index
V3C	3.73
V3Y	2.68
V3R	2.98
V3N	3.22
V3H	3.23
V3M	2.31
V3I	3.59
A8L	2.65
A8E	3.25
A8T	2.87
A8D	3.43
A12S	2.39
A12G	3.21
A12W	2.09
K17C	1.99
K17N	2.57
K7G	3.13
K7Y	2.23
K7I	2.46
K7C	2.56
K7S	2.66
L15M	2.58

Variant	protein stability index
L15N	3.56
L15G	4.08
G24C	2.64
R20T	2.61
R20W	2.2
R20Y	1.51
R20D	3.08
L23C	3.28
L23Q	4.34
L23A	3.98
L11Q	3.79
L11E	4.03
L11S	3.29
R19S	2.51
R19L	2.05
R19N	2.37
A6L	1.63
A6Q	3.58
A6F	3.04
A6P	3.92
N14Q	3.41
N14H	1.94

Variant	protein stability index
T21S	3.26
T21D	3.59
T21L	2.98
Y22F	3.25
Y22N	3.46
Y22E	3.12
Y22G	4.24
Y22Q	3.93
Y22T	3.88
R18H	2.91
R18D	3
R18T	2.73
R18L	2.55
T2K	2.81
T2Q	2.61
T2N	3.75
T2V	2.5
T2H	3.44
P5K	2.92
P5D	3.8
